Results: patent US20030229005A1

Experiments:
Assay in all cases: cell-based or functional assay
collagenase 1 = collagenase 1 (UniProt P03956)
[1] = target: human Gelatinase-A (human) (UniProt P08253)
gelatinase B = gelatinase B (UniProt P14780)
Sequence of gelatinase B (P14780 107-707 limits assumed): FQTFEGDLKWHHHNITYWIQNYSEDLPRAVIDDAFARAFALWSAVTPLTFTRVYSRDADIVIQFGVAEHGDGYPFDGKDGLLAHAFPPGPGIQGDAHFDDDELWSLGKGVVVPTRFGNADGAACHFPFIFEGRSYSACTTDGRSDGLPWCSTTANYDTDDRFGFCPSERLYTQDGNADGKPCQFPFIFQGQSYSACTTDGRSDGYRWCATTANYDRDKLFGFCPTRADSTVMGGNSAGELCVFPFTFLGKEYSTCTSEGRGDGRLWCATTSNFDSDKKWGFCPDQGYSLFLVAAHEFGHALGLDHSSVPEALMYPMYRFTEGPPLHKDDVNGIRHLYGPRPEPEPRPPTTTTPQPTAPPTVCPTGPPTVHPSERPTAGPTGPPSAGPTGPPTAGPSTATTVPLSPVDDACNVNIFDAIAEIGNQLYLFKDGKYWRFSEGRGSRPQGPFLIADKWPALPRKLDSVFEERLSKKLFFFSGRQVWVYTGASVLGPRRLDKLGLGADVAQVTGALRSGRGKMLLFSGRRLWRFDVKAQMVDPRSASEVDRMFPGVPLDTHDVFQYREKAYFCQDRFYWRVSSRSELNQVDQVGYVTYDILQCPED

Sequence of human Gelatinase-A (human) (P08253 110-660 limits assumed): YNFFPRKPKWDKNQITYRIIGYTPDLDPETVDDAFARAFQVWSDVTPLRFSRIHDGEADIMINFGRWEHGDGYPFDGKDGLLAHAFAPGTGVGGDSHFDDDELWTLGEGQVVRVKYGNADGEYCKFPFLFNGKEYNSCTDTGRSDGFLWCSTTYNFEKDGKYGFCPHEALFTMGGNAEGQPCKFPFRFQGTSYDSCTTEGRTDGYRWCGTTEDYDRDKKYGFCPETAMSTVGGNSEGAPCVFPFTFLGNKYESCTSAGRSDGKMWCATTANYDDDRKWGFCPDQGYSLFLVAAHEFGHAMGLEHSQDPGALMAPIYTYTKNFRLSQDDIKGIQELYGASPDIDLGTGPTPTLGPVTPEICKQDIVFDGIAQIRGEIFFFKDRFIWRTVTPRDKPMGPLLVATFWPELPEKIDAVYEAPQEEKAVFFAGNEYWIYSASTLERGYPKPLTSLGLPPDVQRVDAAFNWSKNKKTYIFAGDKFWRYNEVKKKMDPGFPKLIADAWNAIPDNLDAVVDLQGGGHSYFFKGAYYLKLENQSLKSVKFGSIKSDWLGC
Sequence of collagenase 1 (P03956 100-469 limits assumed): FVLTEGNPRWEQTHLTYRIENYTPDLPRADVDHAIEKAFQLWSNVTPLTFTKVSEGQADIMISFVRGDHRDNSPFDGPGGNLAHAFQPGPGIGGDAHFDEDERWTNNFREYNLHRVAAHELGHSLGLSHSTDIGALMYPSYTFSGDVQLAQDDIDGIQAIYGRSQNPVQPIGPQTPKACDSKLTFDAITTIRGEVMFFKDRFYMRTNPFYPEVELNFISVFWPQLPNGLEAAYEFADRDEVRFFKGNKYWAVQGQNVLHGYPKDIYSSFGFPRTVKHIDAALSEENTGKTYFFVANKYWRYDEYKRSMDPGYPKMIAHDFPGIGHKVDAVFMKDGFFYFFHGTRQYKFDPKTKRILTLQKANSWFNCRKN

## bovine type II collagen (from UniProt P02459 182-1241)
Collagenase 1
  Average Percent Inhibition, 2.10-3.10 h, TypeIICOL 44 ug/ul: 18%
  Average Percent Inhibition, 2.10-3.10 h, TypeIICOL .18 ug/ul: 0%
  Average Percent Inhibition, 2.10-3.10 h, TypeIICOL .55 ug/ul: 3%
  Average Percent Inhibition, 3.10-4.10 h, TypeIICOL 1.6 ug/ul: -2%
  Average Percent Inhibition, 3.10-4.10 h, TypeIICOL 4.9 ug/ul: 0%
  Average Percent Inhibition, 3.10-4.10 h, TypeIICOL 15 ug/ul: 8%
  Average Percent Inhibition, 3.10-4.10 h, TypeIICOL 44 ug/ul: 12%
  Average Percent Inhibition, 3.10-4.10 h, TypeIICOL .18 ug/ul: -1%
  Average Percent Inhibition, 3.10-4.10 h, TypeIICOL .55 ug/ul: 2%
  Average Percent Inhibition, 4.10-5.10 h, TypeIICOL 1.6 ug/ul: -3%
  Average Percent Inhibition, 4.10-5.10 h, TypeIICOL 4.9 ug/ul: -2%
  Average Percent Inhibition, 4.10-5.10 h, TypeIICOL 15 ug/ul: 6%
  Average Percent Inhibition, 4.10-5.10 h, TypeIICOL 44 ug/ul: 9%
  Average Percent Inhibition, 4.10-5.10 h, TypeIICOL .18 ug/ul: -1%
  Average Percent Inhibition, 4.10-5.10 h, TypeIICOL .55 ug/ul: 1%
  Average Percent Inhibition, 5.10-6.10 h, TypeIICOL 1.6 ug/ul: -4%
  Average Percent Inhibition, 5.10-6.10 h, TypeIICOL 4.9 ug/ul: -4%
  Average Percent Inhibition, 5.10-6.10 h, TypeIICOL 15 ug/ul: 4%
  Average Percent Inhibition, 5.10-6.10 h, TypeIICOL 44 ug/ul: 7%
  Average Percent Inhibition, 5.10-6.10 h, TypeIICOL .18 ug/ul: -1%
  Average Percent Inhibition, 5.10-6.10 h, TypeIICOL .55 ug/ul: 1%
[1]
  Average Percent Inhibition from 1.1 to 6.6 Hours, Type II Collagen 0.18 ug/ml: 2%
  Average Percent Inhibition from 1.1 to 6.6 Hours, Type II Collagen 0.54 ug/ml: 6%
  Average Percent Inhibition from 1.1 to 6.6 Hours, Type II Collagen 1.63 ug/ml: -52%
  Average Percent Inhibition from 1.1 to 6.6 Hours, Type II Collagen 4.89 ug/ml: 32%
  Average Percent Inhibition from 1.1 to 6.6 Hours, Type II Collagen 14.67 ug/ml: 56%
  Average Percent Inhibition from 1.1 to 6.6 Hours, Type II Collagen 44.00 ug/ml: 83%
  Average Percent Inhibition, 0.10-1.10 h, TypeIICOL 1.6 ug/ul: -27%
  Average Percent Inhibition, 0.10-1.10 h, TypeIICOL 4.9 ug/ul: 37%
  Average Percent Inhibition, 0.10-1.10 h, TypeIICOL 15 ug/ul: 56%
  Average Percent Inhibition, 0.10-1.10 h, TypeIICOL 44 ug/ul: 58%
  Average Percent Inhibition, 0.10-1.10 h, TypeIICOL .18 ug/ul: 3%
  Average Percent Inhibition, 0.10-1.10 h, TypeIICOL .55 ug/ul: 2%
  Average Percent Inhibition, 1.10-2.10 h, TypeIICOL 1.6 ug/ul: 4%
  Average Percent Inhibition, 1.10-2.10 h, TypeIICOL 4.9 ug/ul: 43%
  Average Percent Inhibition, 1.10-2.10 h, TypeIICOL 15 ug/ul: 64%
  Average Percent Inhibition, 1.10-2.10 h, TypeIICOL 44 ug/ul: 78%
  Average Percent Inhibition, 1.10-2.10 h, TypeIICOL .18 ug/ul: 9%
  Average Percent Inhibition, 1.10-2.10 h, TypeIICOL .55 ug/ul: 11%
  Average Percent Inhibition, 2.10-3.10 h, TypeIICOL 1.6 ug/ul: -11%
  Average Percent Inhibition, 2.10-3.10 h, TypeIICOL 4.9 ug/ul: 46%
  Average Percent Inhibition, 2.10-3.10 h, TypeIICOL 15 ug/ul: 70%
  Average Percent Inhibition, 2.10-3.10 h, TypeIICOL 44 ug/ul: 86%
  Average Percent Inhibition, 2.10-3.10 h, TypeIICOL .18 ug/ul: 7%
  Average Percent Inhibition, 2.10-3.10 h, TypeIICOL .55 ug/ul: 12%
  Average Percent Inhibition, 3.10-4.10 h, TypeIICOL 1.6 ug/ul: -37%
  Average Percent Inhibition, 3.10-4.10 h, TypeIICOL 4.9 ug/ul: 37%
  Average Percent Inhibition, 3.10-4.10 h, TypeIICOL 15 ug/ul: 64%
  Average Percent Inhibition, 3.10-4.10 h, TypeIICOL 44 ug/ul: 87%
  Average Percent Inhibition, 3.10-4.10 h, TypeIICOL .18 ug/ul: 3%
  Average Percent Inhibition, 3.10-4.10 h, TypeIICOL .55 ug/ul: 8%
  Average Percent Inhibition, 4.10-5.10 h, TypeIICOL 1.6 ug/ul: -68%
  Average Percent Inhibition, 4.10-5.10 h, TypeIICOL 4.9 ug/ul: 27%
  Average Percent Inhibition, 4.10-5.10 h, TypeIICOL 15 ug/ul: 53%
  Average Percent Inhibition, 4.10-5.10 h, TypeIICOL 44 ug/ul: 85%
  Average Percent Inhibition, 4.10-5.10 h, TypeIICOL .18 ug/ul: 0%
  Average Percent Inhibition, 4.10-5.10 h, TypeIICOL .55 ug/ul: 4%
  Average Percent Inhibition, 5.10-6.10 h, TypeIICOL 1.6 ug/ul: -104%
  Average Percent Inhibition, 5.10-6.10 h, TypeIICOL 4.9 ug/ul: 19%
  Average Percent Inhibition, 5.10-6.10 h, TypeIICOL 15 ug/ul: 41%
  Average Percent Inhibition, 5.10-6.10 h, TypeIICOL 44 ug/ul: 82%
  Average Percent Inhibition, 5.10-6.10 h, TypeIICOL .18 ug/ul: -3%
  Average Percent Inhibition, 5.10-6.10 h, TypeIICOL .55 ug/ul: -1%
Gelatinase B
  Average Percent Inhibition from 1.1 to 6.6 Hours, Type II Collagen 0.18 ug/ml: 9%
  Average Percent Inhibition from 1.1 to 6.6 Hours, Type II Collagen 0.54 ug/ml: 9%
  Average Percent Inhibition from 1.1 to 6.6 Hours, Type II Collagen 1.63 ug/ml: 12%
  Average Percent Inhibition from 1.1 to 6.6 Hours, Type II Collagen 4.89 ug/ml: 38%
  Average Percent Inhibition from 1.1 to 6.6 Hours, Type II Collagen 14.67 ug/ml: 65%
  Average Percent Inhibition from 1.1 to 6.6 Hours, Type II Collagen 44.00 ug/ml: 84%
  Average Percent Inhibition, 0.10-1.10 h, TypeIICOL 1.6 ug/ul: -28%
  Average Percent Inhibition, 0.10-1.10 h, TypeIICOL 4.9 ug/ul: 35%
  Average Percent Inhibition, 0.10-1.10 h, TypeIICOL 15 ug/ul: 57%
  Average Percent Inhibition, 0.10-1.10 h, TypeIICOL 44 ug/ul: 41%
  Average Percent Inhibition, 0.10-1.10 h, TypeIICOL .18 ug/ul: 3%
  Average Percent Inhibition, 0.10-1.10 h, TypeIICOL .55 ug/ul: 3%
  Average Percent Inhibition, 1.10-2.10 h, TypeIICOL 1.6 ug/ul: 14%
  Average Percent Inhibition, 1.10-2.10 h, TypeIICOL 4.9 ug/ul: 43%
  Average Percent Inhibition, 1.10-2.10 h, TypeIICOL 15 ug/ul: 67%
  Average Percent Inhibition, 1.10-2.10 h, TypeIICOL 44 ug/ul: 82%
  Average Percent Inhibition, 1.10-2.10 h, TypeIICOL .18 ug/ul: 12%
  Average Percent Inhibition, 1.10-2.10 h, TypeIICOL .55 ug/ul: 10%
  Average Percent Inhibition, 2.10-3.10 h, TypeIICOL 1.6 ug/ul: 19%
  Average Percent Inhibition, 2.10-3.10 h, TypeIICOL 4.9 ug/ul: 47%
  Average Percent Inhibition, 2.10-3.10 h, TypeIICOL 15 ug/ul: 72%
  Average Percent Inhibition, 2.10-3.10 h, TypeIICOL 44 ug/ul: 87%
  Average Percent Inhibition, 2.10-3.10 h, TypeIICOL .18 ug/ul: 11%
  Average Percent Inhibition, 2.10-3.10 h, TypeIICOL .55 ug/ul: 12%
  Average Percent Inhibition, 3.10-4.10 h, TypeIICOL 1.6 ug/ul: 15%
  Average Percent Inhibition, 3.10-4.10 h, TypeIICOL 4.9 ug/ul: 41%
  Average Percent Inhibition, 3.10-4.10 h, TypeIICOL 15 ug/ul: 69%
  Average Percent Inhibition, 3.10-4.10 h, TypeIICOL 44 ug/ul: 87%
  Average Percent Inhibition, 3.10-4.10 h, TypeIICOL .18 ug/ul: 9%
  Average Percent Inhibition, 3.10-4.10 h, TypeIICOL .55 ug/ul: 10%
  Average Percent Inhibition, 4.10-5.10 h, TypeIICOL 1.6 ug/ul: 11%
  Average Percent Inhibition, 4.10-5.10 h, TypeIICOL 4.9 ug/ul: 35%
  Average Percent Inhibition, 4.10-5.10 h, TypeIICOL 15 ug/ul: 64%
  Average Percent Inhibition, 4.10-5.10 h, TypeIICOL 44 ug/ul: 85%
  Average Percent Inhibition, 4.10-5.10 h, TypeIICOL .18 ug/ul: 7%
  Average Percent Inhibition, 4.10-5.10 h, TypeIICOL .55 ug/ul: 8%
  Average Percent Inhibition, 5.10-6.10 h, TypeIICOL 1.6 ug/ul: 7%
  Average Percent Inhibition, 5.10-6.10 h, TypeIICOL 4.9 ug/ul: 30%
  Average Percent Inhibition, 5.10-6.10 h, TypeIICOL 15 ug/ul: 59%
  Average Percent Inhibition, 5.10-6.10 h, TypeIICOL 44 ug/ul: 83%
  Average Percent Inhibition, 5.10-6.10 h, TypeIICOL .18 ug/ul: 5%
  Average Percent Inhibition, 5.10-6.10 h, TypeIICOL .55 ug/ul: 6%
